Laboratory results reported in paper PMC3866925, “Functional characterization of two members of histidine phosphatase superfamily in Mycobacterium tuberculosis” (BMC Microbiology, 2013).

Target: the molecule itself
Test: SEC

Protein | stoichiometry N
C-His-Rv2135c (enzyme, also called C-His-Rv2315c; not shown: His6, C-terminal, kept) MTVILLRHARSTSNTAGVLAGRSGVDLDEKGREQATGLIDRIGDLPIRAVASSPMLRCQRTVEPLAEALCLEPLIDDRFSEVDYGEWTGRKIGDLVDEPLWRVVQAHPSAAVFPGGEGLAQVQTRAVAAVREHDRRLADQHGHDVLWLACTHGDVIKAVIADAFGMHLDSFQRITADPGSVSVVRYTQLRPFVLHVNHTGARLAPALQAAASAQGASPEPNAAVPPGDAVIGGSTD | 4
C-His-Rv0489 (enzyme, also called C-His-Rv0489c; cofactor dependent phosphoglycerate mutase of M. tuberculosis; not shown: His6, C-terminal, kept) MANTGSLVLLRHGESDWNALNLFTGWVDVGLTDKGQAEAVRSGELIAEHDLLPDVLYTSLLRRAITTAHLALDSADRLWIPVRRSWRLNERHYGALQGLDKAETKARYGEEQFMAWRRSYDTPPPPIERGSQFSQDADPRYADIGGGPLTECLADVVARFLPYFTDVIVGDLRVGKTVLIVAHGNSLRALVKHLDQMSDDEIVGLNIPTGIPLRYDLDSAMRPLVRGGTYLDPEAAAAGAAAVAGQGRG | 2
